# Results published in article PMC6553528, “An Interaction Network of the Human SEPT9 Established by Quantitative Mass Spectrometry” (G3: Genes|Genomes|Genetics, 2019).
# T1: 6his-SEPT9 (human, UniProt Q9UHD8 2-586)
# T1 construct: SEPT9 isoform 1 (SEPT9_i1), human; PCR amplified from the GFP-SEPT9_i1 plasmid and cloned into the in-house plasmid pES; The forward primer reads ENLYFQG (a TEV site, surmised) followed by KKSYSGG, i.e. SEPT9 from its second codon; the reverse primer ends with PEAPEM and stop codons; also called 6his-tagged SEPT9; 6his tagged SEPT9; source: E. coli, purified (IMAC, approx. 70% purity; desalted …)
# T1 sequence (looked up): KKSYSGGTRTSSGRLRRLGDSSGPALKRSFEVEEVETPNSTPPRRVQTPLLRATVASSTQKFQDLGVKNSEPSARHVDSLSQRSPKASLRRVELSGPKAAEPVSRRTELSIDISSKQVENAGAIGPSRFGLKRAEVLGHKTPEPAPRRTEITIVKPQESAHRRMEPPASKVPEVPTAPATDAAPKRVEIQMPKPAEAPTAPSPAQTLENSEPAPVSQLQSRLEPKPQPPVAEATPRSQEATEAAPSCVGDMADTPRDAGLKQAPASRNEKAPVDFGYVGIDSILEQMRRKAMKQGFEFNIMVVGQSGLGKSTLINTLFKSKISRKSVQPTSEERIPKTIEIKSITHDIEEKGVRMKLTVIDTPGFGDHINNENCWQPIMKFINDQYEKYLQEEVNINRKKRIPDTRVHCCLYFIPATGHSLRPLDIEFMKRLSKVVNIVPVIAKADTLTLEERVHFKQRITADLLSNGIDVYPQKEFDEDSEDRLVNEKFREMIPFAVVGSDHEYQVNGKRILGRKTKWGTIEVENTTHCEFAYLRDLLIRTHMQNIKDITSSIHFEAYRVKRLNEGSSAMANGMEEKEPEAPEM
# Target: T1, 6his-SEPT9
# Test: pull-down; GST fusion proteins immobilized on Glutathione Sepharose from the crude extract, incubated with 2 µM 6his-SEPT9 for 1 h in PBS; Western blot with anti-6his and anti-GST
# Conditions: both partners purified
row,Binder,binding result
1,"GST-MYO1C_(809-1063) (domain or fragment, human, UniProt O00159 809-1063, looked up, Unconventional myosin-Ic (MYO1C), C-terminal tail fragment, amino acids 809-1063, amplified from cDNA of 1306 fibroblast mRNA; Cloned in pGEX2T; also called C-terminal tail fragment of MYO1C; source: E. coli, immobilized on Glutathione Sepharose from the crude extract; not shown: GST, N-terminal, kept) LDHVRTSFLLNLRRQLPQNVLDTSWPTPPPALREASELLRELCIKNMVWKYCRSISPEWKQQLQQKAVASEIFKGKKDNYPQSVPRLFISTRLGTDEISPRVLQALGSEPIQYAVPVVKYDRKGYKPRSRQLLLTPNAVVIVEDAKVKQRIDYANLTGISVSSLSDSLFVLHVQRADNKQKGDVVLQSDHVIETLTKTALSANRVNSININQGSITFAGGPGRDGTIDFTPGSELLITKAKNGHLAVVAPRLNSR",binds
2,"GST-MYO6_(835-1294) (domain or fragment, UniProt Q9UM54 835-1294, looked up, Cloned in pGEX2T; also called C-terminal tail fragment of MYO6; source: E. coli, immobilized on Glutathione Sepharose from the crude extract; not shown: GST, N-terminal, kept) PRIDGLVKVGTLKKRLDKFNEVVSVLKDGKPEMNKQIKNLEISIDTLMAKIKSTMMTQEQIQKEYDALVKSSEELLSALQKKKQQEEEAERLRRIQEEMEKERKRREEDEKRRRKEEEERRMKLEMEAKRKQEEEERKKREDDEKRIQAEVEAQLARQKEEESQQQAVLEQERRDRELALRIAQSEAELISDEAQADLALRRSLDSYPVSKNDGTRPKMTPEQMAKEMSEFLSRGPAVLATKAAAGTKKYDLSKWKYAELRDTINTSCDIELLAACREEFHRRLKVYHAWKSKNKKRNTETEQRAPKSVTDYDFAPFLNNSPQQNPAAQIPARQREIEMNRQQRFFRIPFIRPADQYKDPQSKKKGWWYAHFDGPWIARQMELHPDKPPILLVAGKDDMEMCELNLEETGLTRKRGAEILPRQFEEIWERCGGIQYLQNAIESRQARPTYATAMLQSLLK",binds
